{
  "source": "patent US20240343823A1",
  "about": "(Ablynx, published 2024)",
  "binders": {"B1": {"name": "A022600104 (other)", "chain": "DVQLVESGGGVVQPGGSLRLSCVASGYVHKINFYGWYRQAPGKEREKVAHISIGDQTDYADSAKGRFTISRDESKNTVYLQMNSLRPEDTALYYCRALSRIWPYDYWGQGTLVTVSSGGGGSGGGSEVQLVESGGGLVQPGGSLRLSCVASGFTFSSFAMTWVRRPPGKGLEWVATITNGGVTSYRDSVKGRFTISRDNAKNTLYLEMTSLNPEDTAVYICANARRTGPRAPTDIGSYRGQGTLVTVSSGGGGSGGGGSGGGGSGGGGSGGGGSGGGGSGGGGSEVQLVESGGGVVQPGGSLRLSCAASGFTFRSFGMSWVRQAPGKGPEWVSSISGSGSDTLYADSVKGRFTISRDNSKNTLYLQMNSLRPEDTALYYCTIGGSLSRSSQGTLVTVSSA"}, "B2": {"name": "A022600096 (other)", "chain": "DVQLVESGGGLVQPGGSLRLSCVASGYVHKINFYGWYRQAPGKEREKVAHISIGDQTDYADSAKGRFTISRDESKNTVYLQMNSLRPEDTALYYCRALSRIWPYDYWGQGTLVTVSSGGGGSGGGGSGGGGSGGGGSGGGGSGGGGSGGGGSEVQLVESGGGLVQPGGSLRLSCVASGFTFSSFAMTWVRRPPGKGLEWVATITNGGVTSYRDSVKGRFTISRDNAKNTLYLEMTSLNPEDTAVYICANARRTGPRAPTDIGSYRGQGTLVTVSSGGGGSGGGGSGGGGSGGGGSGGGGSGGGGSGGGGSEVQLVESGGGVVQPGGSLRLSCAASGFTFRSFGMSWVRQAPGKGPEWVSSISGSGSDTLYADSVKGRFTISRDNSKNTLYLQMNSLRPEDTALYYCTIGGSLSRSSQGTLVTVSSA"}, "B3": {"name": "A022600168 (other)", "chain": "DVQLVESGGGVVQPGGSLRLSCVASGYVHKINFYGWYRQAPGKEREKVAHISIGDQTDYADSAKGRFTISRDESKNTVYLQMNSLRPEDTAAYYCRALSRIWPYDYWGQGTLVTVSSGGGGSEVQLVESGGGLVQPGGSLRLSCVASGFTFSSFAMTWVRRPPGKGLEWVATITNGGVTSYRDSVKGRFTISRDNAKNTLYLEMTSLNPEDTAVYICANARRTGPRAPTDIGSYRGQGTLVTVSSGGGGSGGGGSGGGGSGGGGSGGGGSGGGGSGGGGSEVQLVESGGGLVQPGGSLRLSCVASGSIFRSVFSSSTMEWYRQPPGKKRELVARIAPGDGTNYGALYADSVKGRFTISRDDAKKTVDLQMNSLKPEDTGVYFCASGVAWGQGTLVTVSSGGGGSGGGGSGGGGSGGGGSGGGGSGGGGSGGGGSEVQLVESGGGVVQPGGSLRLSCAASGFTFRSFGMSWVRQAPGKGPEWVSSISGSGSDTLYADSVKGRFTISRDNSKNTLYLQMNSLRPEDTALYYCTIGGSLSRSSQGTLVTVSSA"}, "B4": {"name": "A022600102 (other)", "chain": "DVQLVESGGGVVQPGGSLRLSCVASGYVHKINFYGWYRQAPGKEREKVAHISIGDQTDYADSAKGRFTISRDESKNTVYLQMNSLRPEDTALYYCRALSRIWPYDYWGQGTLVTVSSAAAEVQLVESGGGLVQPGGSLRLSCVASGFTFSSFAMTWVRRPPGKGLEWVATITNGGVTSYRDSVKGRFTISRDNAKNTLYLEMTSLNPEDTAVYICANARRTGPRAPTDIGSYRGQGTLVTVSSGGGGSGGGGSGGGGSGGGGSGGGGSGGGGSGGGGSEVQLVESGGGVVQPGGSLRLSCAASGFTFRSFGMSWVRQAPGKGPEWVSSISGSGSDTLYADSVKGRFTISRDNSKNTLYLQMNSLRPEDTALYYCTIGGSLSRSSQGTLVTVSSA"}, "B5": {"name": "A022600167 (other)", "chain": "DVQLVESGGGVVQPGGSLRLSCVASGYVHKINFYGWYRQAPGKEREKVAHISIGDQTDYADSAKGRFTISRDESKNTVYLQMNSLRPEDTAAYYCRALSRIWPYDYWGQGTLVTVSSGGGGSEVQLVESGGGLVQPGGSLRLSCVASGFTFSSFAMTWVRRPPGKGLEWVATITNGGVTSYRDSVKGRFTISRDNAKNTLYLEMTSLNPEDTAVYICANARRTGPRAPTDIGSYRGQGTLVTVSSGGGGSGGGGSGGGGSGGGGSGGGGSGGGGSGGGGSEVQLVESGGGVVQPGGSLRLSCAASGFTFRSFGMSWVRQAPGKGPEWVSSISGSGSDTLYADSVKGRFTISRDNSKNTLYLQMNSLRPEDTALYYCTIGGSLSRSSQGTLVTVSSA"}, "B6": {"name": "A022600103 (other)", "chain": "B5 chain with A92L"}},
  "experiment_in_all_cases": "cell-based or functional assay",
  "key": {"[1]": {"biological_target": "T1, human GPC3 on tumor cell lines (HepG2, Huh-7, NCI-H661, MKN-45, NCI-H23, BxPC-3, NCI-H292) (human, UniProt P51654 25-554)"}, "[2]": {"biological_target": "T1, human GPC3 on tumor cell lines (HepG2, …)", "remark": "listed apart in the source"}, "[3]": {"biological_target": "T1, human GPC3 on tumor cell lines (HepG2, …)", "remark": "listed apart in the source"}, "[4]": {"biological_target": "T1, human GPC3 on tumor cell lines (HepG2, …)", "remark": "listed apart in the source"}, "[5]": {"biological_target": "T1, human GPC3 on tumor cell lines (HepG2, …)", "remark": "listed apart in the source"}, "[6]": {"biological_target": "T1, human GPC3 on tumor cell lines (HepG2, …)", "remark": "listed apart in the source"}},
  "note": "Numbering of substitutions follows the chain as printed. Where two headings read alike, the source gives them in different places.",
  "data": [
    {"binder": "B1", "values": [
      {"measurement": "IC50 (M), Incucyte human TDC HepG2-Nuclight green assay", "setting": "[1]", "value": "2.13e-09", "unit": "M"},
      {"measurement": "Max % Killing, Incucyte human TDC HepG2-Nuclight green assay", "setting": "[1]", "value": 90, "unit": "%"}
    ]},
    {"binder": "B2", "values": [
      {"measurement": "IC50 (M), Incucyte human TDC HepG2-Nuclight green assay", "setting": "[1]", "value": "1.4e-09", "unit": "M"},
      {"measurement": "Max % Killing, Incucyte human TDC HepG2-Nuclight green assay", "setting": "[1]", "value": 72, "unit": "%"}
    ]},
    {"binder": "B3", "values": [
      {"measurement": "HepG2 on Incucyte IC50", "setting": "[2]", "value": 0.367, "unit": "nM"},
      {"measurement": "HepG2 on Incucyte Max % killing", "setting": "[2]", "value": 103, "unit": "%"},
      {"measurement": "Huh7 on xCELLigence IC50", "setting": "[2]", "value": 0.198, "unit": "nM"},
      {"measurement": "Huh7 on xCELLigence Max % killing", "setting": "[2]", "value": 107, "unit": "%"},
      {"measurement": "HepG2 on Incucyte IC50", "setting": "[3]", "value": 0.367, "unit": "nM"},
      {"measurement": "HepG2 on Incucyte Max % killing", "setting": "[3]", "value": 103, "unit": "%"},
      {"measurement": "Huh7 on xCELLigence IC50", "setting": "[3]", "value": 0.198, "unit": "nM"},
      {"measurement": "Huh7 on xCELLigence Max % killing", "setting": "[3]", "value": 107, "unit": "%"},
      {"measurement": "HepG2 on Incucyte IC50", "setting": "[4]", "value": 0.367, "unit": "nM"},
      {"measurement": "HepG2 on Incucyte Max % killing", "setting": "[4]", "value": 103, "unit": "%"},
      {"measurement": "Huh7 on xCELLigence IC50", "setting": "[4]", "value": 0.198, "unit": "nM"},
      {"measurement": "Huh7 on xCELLigence Max % killing", "setting": "[4]", "value": 107, "unit": "%"},
      {"measurement": "IC50 (M), xCELLigence human TDC assay, Hep-G2", "setting": "[5]", "value": "7.3e-11", "unit": "M"},
      {"measurement": "IC50 (M), xCELLigence human TDC assay, Huh-7", "setting": "[5]", "value": "2.4e-11", "unit": "M"},
      {"measurement": "IC50 (M), xCELLigence human TDC assay, NCI-H661", "setting": "[5]", "value": "1.4e-10", "unit": "M"}
    ]},
    {"binder": "B4", "values": [
      {"measurement": "IC50 (M), Incucyte human TDC HepG2-Nuclight green assay", "setting": "[1]", "value": "1.72e-09", "unit": "M"},
      {"measurement": "Max % Killing, Incucyte human TDC HepG2-Nuclight green assay", "setting": "[1]", "value": 94, "unit": "%"}
    ]},
    {"binder": "B5", "values": [
      {"measurement": "HepG2 on Incucyte IC50", "setting": "[2]", "value": 1.92, "unit": "nM"},
      {"measurement": "HepG2 on Incucyte Max % killing", "setting": "[2]", "value": 98, "unit": "%"},
      {"measurement": "Huh7 on xCELLigence IC50", "setting": "[2]", "value": 8.61, "unit": "nM"},
      {"measurement": "Huh7 on xCELLigence Max % killing", "setting": "[2]", "value": 91, "unit": "%"},
      {"measurement": "HepG2 on Incucyte IC50", "setting": "[3]", "value": 1.92, "unit": "nM"},
      {"measurement": "HepG2 on Incucyte Max % killing", "setting": "[3]", "value": 98, "unit": "%"},
      {"measurement": "Huh7 on xCELLigence IC50", "setting": "[3]", "value": 8.61, "unit": "nM"},
      {"measurement": "Huh7 on xCELLigence Max % killing", "setting": "[3]", "value": 91, "unit": "%"},
      {"measurement": "HepG2 on Incucyte IC50", "setting": "[4]", "value": 1.92, "unit": "nM"},
      {"measurement": "HepG2 on Incucyte Max % killing", "setting": "[4]", "value": 98, "unit": "%"},
      {"measurement": "Huh7 on xCELLigence IC50", "setting": "[4]", "value": 8.61, "unit": "nM"},
      {"measurement": "Huh7 on xCELLigence Max % killing", "setting": "[4]", "value": 91, "unit": "%"},
      {"measurement": "IC50 (M), xCELLigence human TDC assay, Hep-G2", "setting": "[5]", "value": "9.2e-11", "unit": "M"},
      {"measurement": "IC50 (M), xCELLigence human TDC assay, Huh-7", "setting": "[5]", "value": "4.7e-10", "unit": "M"},
      {"measurement": "IC50 (M), xCELLigence human TDC assay, NCI-H661", "setting": "[5]", "value": "1.8e-10", "unit": "M"}
    ]},
    {"binder": "B6", "values": [
      {"measurement": "IC50 (M), Incucyte human TDC HepG2-Nuclight green assay", "setting": "[1]", "value": "2.04e-09", "unit": "M"},
      {"measurement": "Max % Killing, Incucyte human TDC HepG2-Nuclight green assay", "setting": "[1]", "value": 92, "unit": "%"},
      {"measurement": "IC50 (M), Incucyte human TDC HepG2-Nuclight green assay", "setting": "[6]", "value": "5.43e-10", "unit": "M"},
      {"measurement": "Max % Killing, Incucyte human TDC HepG2-Nuclight green assay", "setting": "[6]", "value": 90, "unit": "%"},
      {"measurement": "HepG2 on Incucyte IC50", "setting": "[2]", "value": 1.23, "unit": "nM"},
      {"measurement": "HepG2 on Incucyte Max % killing", "setting": "[2]", "value": 96, "unit": "%"},
      {"measurement": "Huh7 on xCELLigence IC50", "setting": "[2]", "value": 7.11, "unit": "nM"},
      {"measurement": "Huh7 on xCELLigence Max % killing", "setting": "[2]", "value": 71, "unit": "%"}
    ]}
  ]
}
